Experimental data reported in the domain aggregation screens of Martell et al. (2025).

Test: soluble fraction after stress (log2 fold change); higher = more stays soluble; pooled small domains, quantitative proteomics
Details: stress: 50 degC
How it was run: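 Pooled custom libraries of small protein domains were measured in a high-throughput format, with quantitative proteomics as the read-out. Each library was stressed at 50°C. Aggregation propensity is given as the base-two logarithm of the fold change in how much of each protein stays soluble after the stress. Higher values mean a larger share of the protein remains in solution.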

Row | Sequence | soluble fraction (log2)
1 | HMKTGHLPVTVIIDGRIISDNLYKTGLSNNWLADQLRKNSIKSSEDVFFAYLNPERKFIYQLRSNS | -1.01
2 | HMESRDRVRQASAAGYRFMSTMAGHEPGFEEASRALFAGDQTAFEARITAWPVDVQTHLKKILAEAFTT | -0.734
3 | HMDPYLSGLLQKLAETDKKISFTRLRSEDLDGESREAIYEFIEKYSGRFGVRWLLNEFGLSPSVYYNYLHS | -0.741
4 | HMQALTLVGQDAKDAKAALDAVDIQPAKTETDRYIYVLTEQQAQELGRTVDALYGVEGSLTLILEV | 0.0301
5 | HMIYQEGMQVKYQGKEYVISEIQDYKTYKTIKLDDNEGYLNGFITGSEILSFRNESELDLEI | -0.314
6 | HMSALTDQQQRVLELVASGLVYKEVAAALSISEPTVKYHMGNILTRLHVKNRAQAIAAARQQGLL | -1.21
7 | HMSQLSDEQELRDIARGIIEGNPNEAEKYRAGRTGLLGFFVGKLMAETEGKANPRLASRILKELLE | -0.0477
8 | HMNTYVLPDALKSQLSVEDTGMLTKQLQALPETLAEGVLDSLSQMLSKNTLQNPVGWMLAVMKRAREGNFN | -0.00363
9 | HMLLTLPEDIITMVRQGTLSAGHARVLAGLESDEMKMTLARQTITNEWSVRQLENAVALMRKS | -0.0766
10 | HMKSSYSGNFKQNVVEYMHNNHLSATETANHFKLGGGSVVLRWERIYYEEGPQALYEERRGR | -1.7
11 | HMGDPVRVDKFLHDMNVGTRSQIRKLIKEKAVFVNDVVAKSGRVKVDPVVDQVRLGEQVITYQ | -0.115
12 | HMKQTFGAMLAALRKEKGMTQLELAEQMGVTDKAVSKWERDLSFPDVTSLPRLAEILEVSVDELMQ | -0.0444
13 | HMDEQLAWLYRKINAFSEIDKALILLYLEDKKYDEIAETLGISSVNARVKMNRIKKRLKEMINDR | -2.53
14 | HMDTSKIDYSEFITMLDKGEVESVVLKSDTLTVTLKHGTGMAAQTKTVTLMEDLSELTKRLEKAGVKSFDK | 0.306
15 | HMKTATAKIKATPFGWLRVRETPSLNGAEIARVNSGESYKILERGEGWIKIKVSDTVEGWVSEAYVELS | -0.102
16 | HMSDQTYVKDPETGEIFRVHKRVWETGEFWRDPVWGNILGGVERGSELERLLREEGWRPLQQSLEGFPEQ | -0.104
17 | HMGSEEMLGALGVVERATDDGDWWIAVHGEHWRARSAQALVPGDRVRVARIDGLTLTVTPIA | -0.0957
18 | HMNEDTEDIKNINSLVNKLTENNFDIIRDSIVKLINKEHLIPYIIETIIEKSILHHRYVHLYVSILKE | 0.0794
19 | HMEESTYQWNNFVRDFYASRVSAQYTNKLKVAAILWHHVKNTPQSKIYHDNLVSKYAEEINYFK | -2.51
20 | HMSEKRLHLVVDESDVNTRIDKYIADELDGYSRSFIQKLIKDNNVLVNGRAVKPNYNIGISDNIDIVLPKL | -0.00587
21 | HMDIFSSFVAIKNANVRELPTAKSAQVATLSKGSEVTALGKVKGKNWYLVARDGKELGYVFGSLIAEAET | -1.29
22 | HMGAPAISYSKFLEQVDRKNVASVTIYKDGRIDGVMTSGSRFATESPSDPGLVGDLLKAGVEIRAKPP | 0.126
23 | HMSVTSEIGAKIKYFRKSKHFSLQEMADLLYKSKSTLSKYENGQISIDIETLYAIAKVLGVHVEQLLYSEP | -4.49

Row | Sequence | soluble fraction (log2)
24 | HMPQNLQDQLFELILSRYPRRADAVEDLANILHLGKDPVYRRLRGDTFLSPLEISTLALHFRISLDALIV | -2.55
25 | HMGELRAPLPGVIVSIPVKEGDEVKAGQAILIIEAMKMESEISSPIDAKVAKIVVKERVLVQEGDILIILE | -0.702
26 | HMIVSEYIIIGGDKKEYGPVSMGEVGEWVQGGRANGDSKIKKVGTEEWGRLRDFPEFSAYLS | -0.00369
27 | HMHPTDMKLTARLEEGAQFVRTQQLSKAIEIFTEVIKLDQNWAEAWNKRATVFYMMGKFKQSQEDIDKVLA | -0.0571
28 | HMSNIQLVENLYRLRKAHHYTQQEISDLLNISRQAYSNYETSKRTPDLDSLMRLADIYGVSLDQLVNHP | -1.45
29 | HMKSQSIFNVKKGDTLSHIAVHVLKKNKQKVTPEAINKMVSNIAFRNKIKNPDLIFPGQKLVLEY | 0.117
30 | HMASMEDILAEAKTKFQEGDLFKSVNEGIQGTHKLTLPLRIKESRIVDASGAAVYREGIWATVDK | 0.108
31 | HMDAAEVEATARAMLRRSALNLLAQREQTAFELKQKLSRRFPEQAALLDEVIERLQEQGLQDDTR | -0.102
32 | HMTVKEYNRAVDEYSDAVWRFIRGNLRDEDRANDIVQDSFEKLWMHVTEIDYSVAKSWLFSTAYNNMIDI | -0.277
33 | HMKSEIRKKNSQIILDAAEHEFSVHGYRGTSVQMIADRSGLPKANLHYYYKSKSALYGAVLDRIL | 0.202
34 | HMGVDMGPAKYVGQKALTATEMRPAGKIQIGQTVFDAVSVGPFIGARKAVKVIKYENAQLYVEPE | 0.00597
35 | HMDTVIAEVTASILNLRRSAGTSSDIIGKLNKGEKVSIIGGSGNWKNVRTSGGITGWVYHEYLSTY | -0.623
36 | HMIDEPENLIQEDKMVNIIYDLALLEGVKTFNSSNFQSVKSNDFVYKKYKIDSLQFAKSTQFYASDINR | -0.168
37 | HMKHTQTDEGELLSTLRTLFPNSSSSSLRKMLTQGRILVNQEVVHRAKHALQAGDEIEVLARQ | -0.122
38 | HMLQIADEYLDRLQALFEDVRDNHFAIGDLLVELVDMHDSRRVDVINYIAGRLAISPTTLYDYENTARR | -0.792
39 | HMALPPPELRGATGEAVTALRPAGIALIQGKRYDVLAEGGEWIAAGAAVRVRDIRNGHLIVSDA | 0.00767
40 | HMTSSVIIPKLIGKTEEEAKVALAGLNVQVLYETHGDQANGIVIKQSFEEGTKVIKGVSIVITVNKVS | 0.0698
41 | HMSKININTITESELKELPISTVKQKAIQDYLIDRGFISNIYDLLDIKEITSDDVSLLKKVVNVKLPY | -0.218
42 | HMDRSQRDQEQAQLIRLVQQAFDDSGQRYGAEKIRITLAEGGIRVSTKRIAAIMQELDLRSI | -1.36
43 | HMRMRPNERQKRIIELLSFRRHETIGNFANEFGVSRDTIKRDIITLQEEYPIISERGYEGGISLPDGYYI | -0.263
44 | HMEKIIGQIQINQRGNGYVIVPNVKDDIFVKRENLNSARQGDRVAVQLLSRPNQKPEGLVQEVLERGQ | 0.461
45 | HMEAGTVTVTHAAVYIRSGPGVSYPIAGKAAKNDTYTVLQKDGDWFQIRLPQGNTGWIAGWLVETGT | -0.635
46 | HMGGHLAYGFSRRFGLLIDEQQGEPVIIARPDYSPVHYAEARRIVGQPAALRVVDEQAFNQLLQSQQESGA | -0.346

Row | Sequence | soluble fraction (log2)
47 | HMGNLPPAVINARIKVSPAGRGVFVGFDKGSTSTEAKYADAIRGYLPNIEFNKDDHESVVTVPFNFR | -0.032
48 | HMKWIEILKSKDGNYALLQDEKDTQFVVASGYNPDAAEDQKWGHGSYFIYWNNKENKAEMLMNAIDLFRYR | -2.11
49 | HMKNDIQLKHDVEEELQWDPAVDASRFAVQAKDGVVTLSGGVDTFADKHAAEEAIRRVAGVTALVIHVDV | -0.107
50 | HMGMYAEERHQAIASLARKHGRVSVAELAERFNVTSETIRRDLDSLARRGLLTRVHGGAVPVE | 0.0963
51 | HMTNTDYPGKVVPVDPDGKTLKPDGDASYNDKPGTKVKTPTVPGYTAEVPNVEVPVGGGDIKVTYHKKPV | 0.372
52 | HMRDKSITFSEFVKLLDEGQIQKVTLTGNEILGTQKSGDKFRTYAPPQYEGLGNKLVERSVEVTAKE | 0.207
53 | HMINYSQKQLIAIQDELSKRFQALENESTKNNVTGFGVGLHYIDIDLIVNTPEKQKEFREKIMDSPAFRFN | -0.839
54 | HMNEAVVVPDVKGLTLDEADEFFKNSKLRYNVVDSVFSKDVAPGAIVELVPVAGSKVKENRIVFVTINAQ | -0.17
55 | HMDSDMGQQLKTLLTVGTFMSSKELKAIAQQLGLKKPTDLKEWVELESGTQRIEGKPTKGYWIKMNDINN | 0.159
56 | HMQDLTAQQQAILSFLKEHPKATRKEISENIPNITEDNIRYNLSQLQELGFVKSMGDSFIRIAI | 0.0658
57 | HMKEKQLMTLDDDLYAFLLKHPGIIQKDIYNHFPYDIKGVIADTLYAWDKTGKIKRTKSGNSYIIYT | -0.0536
58 | HMNIQKYFAGREQFIELLEAVGIRTLEQFASADPSTVLPELHQAKRMLKLQTEIPSAPVFREWVNQALS | -0.237
59 | HMAGTKRAENIEIQKLTEVLEARLDSVGFFWPDHKAESMIMTLRNMISRLPLTEADVRVFHGIIKSLADK | -0.527
60 | HMFQRLPFSFANRYKMVLEYQHPERPPVLYYVEPLKAAAILEVSRVIKSGFTPQAIVSDEFEKKLTEAYQR | -1.1
61 | HMKALEGMRTVFTLADLATEPVTVEITVLEAFKYTTTLEIVQRPVLREWMTNPSMLIRVYHDASTAE | 0.144
62 | HMLLFSVADIVKRSKRILSFKTDAELAAYFGVSRSTLSNWIARNSIDFPLLLSKMKDVDYTWLILGKGTPG | -3.97
63 | HMTEEYAVLWRVARQTLKPEAFDVLWMKYREQLSIAEIAGIMNRSETSVKVMLHRARKNLGTALESS | -1.71
64 | HMSIAEMSGARKSAILLLALDEDSAAEIFKYLSAGEVQEISMEMAKLNQVSHDDMKAVLEAFHKETEEFV | -0.542
65 | HMDGYVPAERIASEVGVSARTITREMHGLEMTLMPYGIALLRRTGAGFMLAGTAKALADLRKHMTEDADTQ | -0.00161
66 | HMKEPGFAPPVRALAAAPITVLAQVAGTNPGEIRARLRAAGYPVASDQQSVQSLVGGDLKAQIGVLNRILA | -0.00802
67 | HMSEQMQVGELVFQLHRKAIKNLHINVLPPDGFVRVSAPQAMTETAIRTAVISRLPWIRRQQQAFAAQ | -2.12
68 | HMDQSIDADIINLNFSKNIIKIEENVYYKNNNAKVNADKIEINIETKKLKISMNEQEDEVEIFAK | 0.283
